Source: the supplement of paper PMC12855868

B1: library; numbered along this chain (parent)
chain: MAAAGGARLLRAASAVLGGPAGRWLHHAGSRAGSSGLLRNRGPGGSAEASRSLSVSARARSSSEDKITVHFINRDGETLTTKGKVGDSLLDVVVENNLDIDGFGACEGTLACSTCHLIFEDHIYEKLDAITDEENDMLDLAYGLTDRSRLGCQICLTKSMDNMTVRVPETVADARQSIDVGKTS

Variants of: B1
Experiment: scaled log2 fold change in cell abundance, elesclomol vs control (0 = silent mean, 1 = nonsense mean) (scaled log2 ratio); higher = higher viability under elesclomol (loss of FDX1 cuproptosis function)
Conditions: glucose 10 mM
[1] = with ABC1 FDX1 KO, elesclomol 5 nM, 14 days
[2] = with HEK293T FDX1 KO, elesclomol 40 nM, 11 days
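Further: variant abundance is its share of total variant reads in each endpoint sample, from next-generation sequencing of the integrated ORF PCR-amplified out of genomic DNA.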

Variant	scaled log2 fold change [1]	scaled log2 fold change [2]
MAAAGGARLLRAASAVLGGPAGRWLHHAGSRAGSSGLLRNRGPGGSAEASRSLSVSARARSSSEDKITVHFINRDGETLTTKGKVGDSLLDVVVENNLDIDGFGACEGTLACSTCHLIFEDHIYEPLDAITDEENDMLDLAYGLTDRSRLGCQICLTKSMDNMTVRVPETVADARQSIDVGKTS	0.252	0.147
MAAAGGARLLRAASAVLGGPAGRWLHHAGSRAGSSGLLRNRGPGGSAEASRSLSVSARARSSSEDKITVHFINRDGETLTTKGKVGDSLLDVVVENNLDIDGFGACEGTLACSTCHLIFEDHIYEGLDAITDEENDMLDLAYGLTDRSRLGCQICLTKSMDNMTVRVPETVADARQSIDVGKTS	0.426	0.372
MAAAGGARLLRAASAVLGGPAGRWLHHAGSRAGSSGLLRNRGPGGSAEASRSLSVSARARSSSEDKITVHFINRDGETLTTKGKVGDSLLDVVVENNLDIDGFGACEGTLACSTCHLIFEDHIYEFLDAITDEENDMLDLAYGLTDRSRLGCQICLTKSMDNMTVRVPETVADARQSIDVGKTS	-0.00916	0.517
MAAAGGARLLRAASAVLGGPAGRWLHHAGSRAGSSGLLRNRGPGGSAEASRSLSVSARARSSSEDKITVHFINRDGETLTTKGKVGDSLLDVVVENNLDIDGFGACEGTLACSTCHLIFEDHIYEILDAITDEENDMLDLAYGLTDRSRLGCQICLTKSMDNMTVRVPETVADARQSIDVGKTS	-0.0257	-0.476
MAAAGGARLLRAASAVLGGPAGRWLHHAGSRAGSSGLLRNRGPGGSAEASRSLSVSARARSSSEDKITVHFINRDGETLTTKGKVGDSLLDVVVENNLDIDGFGACEGTLACSTCHLIFEDHIYELLDAITDEENDMLDLAYGLTDRSRLGCQICLTKSMDNMTVRVPETVADARQSIDVGKTS	-0.515	-0.357
MAAAGGARLLRAASAVLGGPAGRWLHHAGSRAGSSGLLRNRGPGGSAEASRSLSVSARARSSSEDKITVHFINRDGETLTTKGKVGDSLLDVVVENNLDIDGFGACEGTLACSTCHLIFEDHIYEMLDAITDEENDMLDLAYGLTDRSRLGCQICLTKSMDNMTVRVPETVADARQSIDVGKTS	0.305	0.341
MAAAGGARLLRAASAVLGGPAGRWLHHAGSRAGSSGLLRNRGPGGSAEASRSLSVSARARSSSEDKITVHFINRDGETLTTKGKVGDSLLDVVVENNLDIDGFGACEGTLACSTCHLIFEDHIYEHLDAITDEENDMLDLAYGLTDRSRLGCQICLTKSMDNMTVRVPETVADARQSIDVGKTS	0.0646	0.114
MAAAGGARLLRAASAVLGGPAGRWLHHAGSRAGSSGLLRNRGPGGSAEASRSLSVSARARSSSEDKITVHFINRDGETLTTKGKVGDSLLDVVVENNLDIDGFGACEGTLACSTCHLIFEDHIYENLDAITDEENDMLDLAYGLTDRSRLGCQICLTKSMDNMTVRVPETVADARQSIDVGKTS	-0.104	-0.19
